Reference: a protein production outcome set (Wang et al. 2014)

Assay: label from the status in PepcDB records
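Note: failed if final PepcDB status was selected cloned or expressed and not failed if soluble or beyond.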

Sequence	protein production
MSEPMSERERWQLELDKLQRGLQGDPFAFLGPQRDPGGEGGVLRAYLPGAQRVELLDEDGATLAELEQSDPGSGLFQRHLERLPPRYRLRVHWPDGVQESEDPYAFGPLLGELDLYLFAEGNHRQLASCLGAQLTRHEGVEGVRFAVWAPNAVRVSVVGDFNGWDGRRHPMRRRYPSGVWELFVPRLGEGELYKYELQGHDGLLPLKADPLALACETPPGTASKTCAALRHEWRDQDWLARRAERQGYAAP	failed
MSDMGVIVKTNARALIPLIGVFGSYIILHGHLTPGGGFQGGATIVGTALLFLIAFGVDEAKKRINKDLYSALEGIGGLVFLGAAMLGLSVAFFYNILWHKGPLFNGRPGTLLSAGFLPIMNLGVGLKVFTGLVSAVFALALFRRWKE	failed
MISKFIEKRMLNMLDEWYSAMSKRKMNHVCTLKEKIDQHLPKIKKNTKLWMRYQLFQARHQLLFENQNGLDSLFDGLYGLEDKMDDELKYYLYFFSGLYEMVKTAPKHAVHHFKKAEQYLAAIHNTFEAADLYYQTAGAYYLMKSPPLSVQYVKKALHIYLHQFGYIKKVITCKLLLAVNYIDQERYEKAEQLFKEIIKKTQQLHDENLLCHAYYNLGFLKATEKKDQEALLYFRKVLKNQEFEMNSPVSYLHCVYESVRALFKTGNITEAKAVLQKGKELSEKVDIQTIYLKLKTLEALYTSAEDPYEQLLEYVLELEKIEAWVDLEVLLEDITEYYKKKDDFEKAAFFIMRG	failed
MFKKTFSMICCVIFLQGCSQEQEVKKEMTNMETALLAATEKNETNTVISLLKQGANINATDNQGRTPLMIATYKNDVKTAKALIKAGADVNIQDDMKNNPFLYAGAEGYLDILKLTINAGADPTITNRYGGTALIPASEHGYIDVIKELLTRTNIDVNHVNNLGWTALMETIVLSNGNETQQQVIRLLIEHGADVNIPDNDGVTPLEHARAHNFAEIEKILLEGNK	failed
MQEGQNRKTSSLSILAIAGVEPYQEKPGEEYMNEAQLAHFRRILEAWRNQLRDEVDRTVTHMQDEAANFPDPVDRAAQEEEFSLELRNRDRERKLIKKIEKTLKKVEDEDFGYCESCGVEIGIRRLEARPTADLCIDCKTLAEIREKQMAG	not failed
MKQLMLYCRSGFEKECAGEIQDKATQLEVYGFPRVKKNSGYVVFECYQDGDAEKLVKGLDFSSLIFARQMFAVAAEFEALPSEDRISPILAELSEFESFPRCGDLRIETPDTNEAKELLKFCRKFTVPMRQALRGKGLMWNKDNAKKPVLHICFVAPGHCYVGYSLPGNNSQFFMGIPRLKFPADAPSRSTLKLEEAFHVFIPRDEWDERLAPGMWGVDLGACPGGWTYQLVKRSMFVHCVDNGMMADSLMETGQIKHHMVDGFKFEPDRKNVTWIVCDMVEKPARVAHLMGQWLLKGWAKEAIFNLKLPMKGRYDEVLQDLENLKMFLIENKVKFKLQAKHLYHDREEITIHIQCLSNISPH	failed
MKHVDTEIPTEEQIHEAEKFGFHGQVQAAKIRFDRYFPGVLASITVAAAATFLSDHYGAPTMLFALLIGMAFRFLSEDESRALVGIQFASTTVLRIGVALLGMRITLGQIQSLGVKPVVMVFFSVLLTILFGLALSKMMGRGKRFGVLTGGSVGICGASAALAIAAVLPQDEYSERNTIFTVISITALSTLAMIAYPVVAQWFGLDHQAAGIFLGGTIHDVAQVVGAGYSVSEQTGDTATVIKLLRVSMLVPVVFILSLIFHKRNQKDGNAPRRTLLPPFIIFFVLFVGINSLGVVPKPATQFINDVSRWCLVTAIGALGMKTSLKSLFEVGWKPVSIMIAETVFLAVLVLGSVVWMS	failed
MLSNRFNRWTVAAIALMGTAIATVPGRVLAQTPDHPSDTAAQFPTRNDLKSLTTSGSYLAARHASVERDATSAAAFYRSALRTDPKNNELLDRAFISSVADGDIDEAVKLAERVLTIDKTNRVARLVVGVHDLKMKKYATAQTNINQSIRGPITDLVATLLSGWAAYGAGDSKGAVATIDKLAGPEWYPLFKDLHAGMILELAGKEKDAGTRFERAYKLDDSMLRVTEAYARWLSRNKDAAAATTVYQAFDKKLARHPLIVEGLRDTKAGKKLPPLVDSAQAGAAEALYGIGATLTRRGGEDLALVYLQLSLYLQPTHPLALLSLADLYESVKRPQMAIKVYERVPSTSPLKRNAQIQLAIDLDSADRTDEAIKILKGVTSEDSKDLEAIMALGNIERGRKKFGDCGATYSQGVDVLPAGNDKANSVWYYYRGICEERSKQWAKAEADMKKALELQPDQPHVLNYLGYSWIDQGVNLDEGMKMIKRAVEQRPDDGYIVDSLGWAYYRIGNYEEAVKNLERAIDLKPEDPTINDHLGDAYWRVGRTLEAKFQWSHARDLKPEPDELPKIEAKIANGLTEDNSNSSAAQAEKKKDDGKGG	failed
MPAKRRSNARPARAWPTCLSRGSSAVKRVHVAAAVIRDASGKILIARRADTQHQGGLWEFPGGKVEPGEAVEAALARELQEELGIAVTAARPLIKVQHDYPDKQVLLDVWEVSAFSGEPHGAEGQPLAWVTARELADYEFPAANQPIVAAARLPAQYLITPEGLETPTLLRGMQKAVAQGCKLIQLRAPGGYDPQYRDLAVDAVGLCAGKAQLMLKGPFEWLGDFPSAGWHITAAQLRKYASAGRPFGKDRWLAASCHNAEELSLAQQMDVDFVTLSPVQPTQTHPDAQPLGWQQAEQLISGFNKPVYLLGGVGPAECQQAWAAGAQGVAGIRAFWPQD	failed
MQVTLIQGLLIGLFALIAGIDFWLEGLYIFRPMIVCTVTGAILGNLTLGIIAGGLTELAFAGLTPVGGTQPPNPIMAGIMTVVLAYTTGKTPSTAIGLALPFSILMQYIILFYYSAFSVLTKKLDAYAANVETKKFTRLALLPTVLVALTYGVIAFLCVYGAQEPMKALVNSMPVWLSHGFEIAGNILPAVGFGLLLKSMLKAEYVPYLLLGFTAACFIKFGNLMPVAVIGISLAFIEFYHNKKQTDNEKKLKSMIESASGNGDDGDGI	failed
MRSSKMDMPIVLSKRHRRLRSMKDCEPGLPYNEIVENGKRIDLCYSKQYKKYTKKIEIRVGTSILHNKLLRIFPNIVKIYSKHFINLPDLITENTEKRELIFIELENLIIGGGTSGLGVLSEISKEEKTLLISSNIESNTDIPYPLPQINKDEFSKLLRDTINENKDRILEGILLGKFDEGIGFLTKDKILMVRAKRVFLATGGRYIPPIFDGNDIPGIISKNLYLRYGNRITKAIALGNSDDIIKVLFKVEKRVIINNGVLFLSKYYKELIDELGVEIINTNNLKVKREKGGMLKIITNERSFDSNILVYAIVKQPKIDHSYNIGIPYNFSEYFHIYMPIHSIEGKTNDNIYIVGGMRGISDEYTSFLSGKTAVNEKYLDEFINNLKDYTYIYDYYYQKNPKENPSPYIYGNKGYVCECEDITLSEVNRQVGRGFSKVEEIKRTIGLGTGECQGKLCTYSLGSFLGDRQLITFRTPLYRMVI	failed
MPLLIITTILWAFSFSLIGEYLAGQVDSWFSAMFRLTAAAVVFLPFLRWRGYAPRVIFLYMLVGACQLGIMYLFVFQAYLYLTVPEFLLFTVMTPLYVTLIYDLLARHRLRWGYVMSALLAVFGAAVIHYHGVSEHFWWGFLLVQVANVCFASGQVGYKRLMEIHPVPQHCAFSWFYLGAAIVTIAAWLLFGNMDKLPTTTLQWGVLAWLGIGASGVGYFMWNYGATQVDAGTLSIMNNFHVPAGLLVNFAIWHKTPDWLSFIVGTAIITSSLWVHQHWVVKRPLRTANDHKRADAQNE	failed
MGGRIASLLLDELHASTTVAAGVCLGYPFHPLGKPAQLRTHHLIDLSAPCLIFQGERDAMGRQDEVEVYSMSSAVTLQWIPDGDHSFSPRKRSGRTEEQNLCLAVQHVHSFLDSV	failed
MKGKVVSYLAAKKYGFIQGDDGESYFLHFSELLDKKDEGKLVKGSMVHFDPTPTPKGLAAKAISLPLEHHHHHH	not failed
KSIRLAKEKESQADYISTYVEWQYIDKNITQCFDKMTNMKLEVAWKAKKKDTVVQIHNQDFTVDLSTNTATAPQGQTFTVQRLVKA	not failed
MLHYVHVGNKKSPNTLLFVHGSGCNLKIFGELEKYLEDYNCILLDLKGHGESKGQCPSTVYGYIDNVANFITNSEVTKHQKNITLIGYSMGGAIVLGVALKKLPNVRKVVSLSGGARFDKLDKDFMEKIYHNQLDNNYLLECIGGIDNPLSEKYFETLEKDPDIMINDLIACKLIDLVDNLKNIDIPVKAIVAKDELLTLVEYSEIIKKEVENSELKIFETGKHFLLVVNAKGVAEEIKNFI	not failed
MADERRCGVCRPLGGPRQPWPAGLLHCSSRAIFASLCMPRIVFAPAIQRHVAMPALDVGAATVAAALQAAFAREPRLRGYLLDDQGSLRRHVALFVDGVQVRDRRGLGDPLQDDSEIYVVQALSGGLEHHHHHH	failed
MGHRHQFGHGRRGGALMERALIIGASGWGREVLEQMRGDAGHGKDWLIGGFLDSRTNILDSYGVDTPIIGDPMNYLPQPDDVFVCAMGNPYDRHRYALPILQKGGRFIPICTDVRLGRRVHFGQGCFFGLMVHSGPDVRIGDFVTIHAQSMLGHDVRIGDYVHVGAMAFMGGGVQLGDFVTVHPRATLMPGVKVGDGAVIGAGAVVLKDVPAGATVFGNPAKIVFNKNIPTD	failed
MKYADISHFSHPQHNLKFDYTEKPFKCDGCNEVGIGSRYRCSGDNHGSCDFDLHAHCALPSASITHPFYKKCTFQFVARPPGNERRYCNACEKDVSGFLYHCKACGFDLHPCCAMLPMVLDDGETNLFLYRKVSSSCHRCGKKGRSWSYRSLFLILFLFFHYYDTKD	failed
MLMKVAEFERLFRQAAGLDVDKNDLKRVSDFLRNKLYDLLAVAERNAKYNGRDLIFEPDLPIAKGLQETLQEFRRMDTALELKPVLDALAALPPLDLEVAEDVRNLLPELAGALVVAYARVLKELDPALKNPQTEHHERAERVFNLLL	not failed
MSGQTFEKIGGMFLDKQRKEGKSKATLDKTAYHLKLANHDFGKKPITAITAPMILRTLRKVEAKGNYETAHRLRARIGSVFRYAVASGLAETDPTYALRDALIRPTRQHLEHHHHHH	failed
MEISSGGSGMATRARGVVRDGTRALVLAVVGLPGALVLYVLAVVSLLLVPLGVGIVTTPWVLAGVRGFADWRRVVAAEWCGVRIPSGYRPVPVDANPWGRCFRLLSDRATWRDLIWLQVDMTAGFVTALLPAALLFYPLEGFALAAGLWRVFTDGTYIGWWYAFVPVSGQASALAAGALGVVFLVASYHLTPSLLRVHFLLTRAVLAPGQGELAERVRVLTETRRAAVDTSAAELRRIERDLHDGAQARLVAMGMDLGTIEALIEKDPAKARELLARARKSSADALTELRDLVRGIHPPVLAERGLGDAVRALALRVPIASEVNVDFDGRRAAAPVESAAYFAVSEVLTNAVKHAGADRVWIDLRHSDGMLRIAVTDNGRGGARIGTGSGLAGIERRLGTFDGVLAVSSPAGGPTMVSLEIPCELS	failed
MKVSVIIPTYNERENLEELFSRIDNALQGLNYEIVVVDDDSPDRTWEKAQELSSKYPVKVIRRTKEKGLSSAVIRGFKEASGDVFVVMDADLQHPPEVIPKLIEAIKNGSDIAIGSRYVKGGKVENWPFYRKLISKGAIMVGRIALPKIRDIKDPVSGFFALRKEVVEGVELNPIGFKILMEILIKGKYSKVVEVPFTFGIRARGESKLKGKTIFEYLRHIYRLMKWEGEIDRIVKFSIVGLSGILVNEGFLWLFVNLGIPKEIAVIPAVELSILNNFFWNDIWTFKDIRRGSIFSRLLKFHIAALSGAVVNFIVYWILLFLGIHYLIANLVGIVLSFGVRYVINRHVTWAT	failed
